Results from the supplement of paper PMC12042874.
± gives the uncertainty stated by the source.

experiment: amyloid nucleation score (Sup35N fusion, yeast selection) (log enrichment); library NNK2; higher = more nucleation; inactive = no reads after selection
Method in brief: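 Libraries of peptides of 20 random codons fused to Sup35N were expressed in psi-negative yeast and induced 24 hours with 100 μM copper sulfate. Selection was 7 days at 30°C on medium lacking adenine and uracil, and plasmid inserts were Illumina-sequenced before and after selection. Nucleation score is the DiMSum log enrichment of output over input reads, centred on the mode score of non-aggregating sequences, and sequences with under 100 input reads were left out.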

For GSLLDVTHRRKVLSKSMRGL, which amyloid nucleation score is on record?
The amyloid nucleation score was 0.016 ± 0.35.

For VTDRNIRLDPVALKHASVYG, which amyloid nucleation score is on record?
Its amyloid nucleation score is -0.368 ± 0.38.

Which amyloid nucleation score does the source give for VLPTEYSGFFSTRQLPSLDS here?
The amyloid nucleation score was 0.137 ± 0.79.

For FLDAFFFGWDVVVRVYSSAP, which amyloid nucleation score is on record?
Its amyloid nucleation score is -0.153 ± 1.1.

With WYCMNSGASMLCGLRQARFL as the substance, how does the amyloid nucleation score read?
The amyloid nucleation score was -0.715 ± 0.76.

Which amyloid nucleation score does the source give for LFSALFGRW here?
Its amyloid nucleation score is 4.26 ± 0.05.

For YYGRSSLRNRMDVSDVQYPG, which amyloid nucleation score is on record?
The amyloid nucleation score was -0.67 ± 1.1.

For RVLSGRLTTNVDARGCELDR, which amyloid nucleation score is on record?
Its amyloid nucleation score is 1.3 ± 0.29.

Which amyloid nucleation score does the source give for SVYMLRLNYYSFVVLRQTGA here?
The amyloid nucleation score was -0.135 ± 0.79.

With GRTVQIMDRVFS as the substance, how does the amyloid nucleation score read?
The amyloid nucleation score was -1.12 ± 0.76.

With YTVLWRCTFTKARVFGCVSL as the substance, how does the amyloid nucleation score read?
Its amyloid nucleation score is 0.414 ± 0.51.

For YLRMDLVKWKWVGDGSQVC, which amyloid nucleation score is on record?
Its amyloid nucleation score is 2.86 ± 0.08.

With GRVISCVGLTAFNKAVGSCR as the substance, how does the amyloid nucleation score read?
The amyloid nucleation score was 0.626 ± 0.42.

With RVLRLVSVLLFDVILSVE as the substance, how does the amyloid nucleation score read?
The amyloid nucleation score was 4.85 ± 0.085.

For HYSFYLVDYSFNISVGYFCT, which amyloid nucleation score is on record?
Its amyloid nucleation score is 0.571 ± 0.39.

With LLRVMLHISLVMC as the substance, how does the amyloid nucleation score read?
The amyloid nucleation score was -1.34 ± 0.53.

For SSFHWPIKSRDAGVAWSRGG, which amyloid nucleation score is on record?
Its amyloid nucleation score is 2.07 ± 0.18.

With GCLRGIGIGGCVGCLRRILF as the substance, how does the amyloid nucleation score read?
The amyloid nucleation score was “inactive”.

With FGISSNATRDWRLFDHRAVG as the substance, how does the amyloid nucleation score read?
Its amyloid nucleation score is 0.637 ± 0.47.

Which amyloid nucleation score does the source give for YHNWSA here?
The amyloid nucleation score was 0.025 ± 0.23.

Which amyloid nucleation score does the source give for TCTVASLYLGAFDWNYVEAV here?
Its amyloid nucleation score is 3.08 ± 0.12.

With FSGFNR as the substance, how does the amyloid nucleation score read?
The amyloid nucleation score was “inactive”.

With GNLDDTSLYCLYSLVSSRCS as the substance, how does the amyloid nucleation score read?
The amyloid nucleation score was 0.373 ± 0.29.

With VILYNGFDLSGSD as the substance, how does the amyloid nucleation score read?
The amyloid nucleation score was 0.286 ± 0.44.

With FNYSPLRFCTNDC as the substance, how does the amyloid nucleation score read?
Its amyloid nucleation score is 1.63 ± 0.31.

Which amyloid nucleation score does the source give for EVEIVAWFGLHHSWWH here?
Its amyloid nucleation score is 3.25 ± 0.08.

With GCISSVQD as the substance, how does the amyloid nucleation score read?
The amyloid nucleation score was “inactive”.

For PLITDFLAGMLSPENVSVPQ, which amyloid nucleation score is on record?
Its amyloid nucleation score is 0.883 ± 0.51.

Which amyloid nucleation score does the source give for SINLLLGAGVVGGGLVLYGS here?
The amyloid nucleation score was 2.45 ± 0.14.

Which amyloid nucleation score does the source give for MKKFLGWRYELNCWVLYNSG here?
Its amyloid nucleation score is -1.16 ± 0.76.

For SNVFEVGPMGPSR, which amyloid nucleation score is on record?
The amyloid nucleation score was 0.056 ± 0.5.

For MKKWWPVICFGWSQVSFRVE, which amyloid nucleation score is on record?
The amyloid nucleation score was 3.21 ± 0.16.

For FNLTFNHF, which amyloid nucleation score is on record?
Its amyloid nucleation score is 6.041 ± 0.045.

For SVLQTTFVLVVGKTYNTSTD, which amyloid nucleation score is on record?
Its amyloid nucleation score is 2.94 ± 0.072.

With NAPLCFKHKSRL as the substance, how does the amyloid nucleation score read?
Its amyloid nucleation score is -0.995 ± 0.44.

For IDDVEGPVAPFGIATVQDQP, which amyloid nucleation score is on record?
Its amyloid nucleation score is 1.51 ± 0.46.

For NVPKSSINEWSLPDLLVLNV, which amyloid nucleation score is on record?
The amyloid nucleation score was 0.923 ± 0.81.

Which amyloid nucleation score does the source give for STRVWWDSWMFWLNEK here?
Its amyloid nucleation score is -0.607 ± 1.

With CHFSYKECRSAVRMLQYNGA as the substance, how does the amyloid nucleation score read?
Its amyloid nucleation score is 2.54 ± 0.13.

For HLTNLDFT, which amyloid nucleation score is on record?
Its amyloid nucleation score is -1.1 ± 0.44.

With VNVYLFYYYPHSSHCYIF as the substance, how does the amyloid nucleation score read?
The amyloid nucleation score was 7.658 ± 0.056.

With DRLLHDTE as the substance, how does the amyloid nucleation score read?
Its amyloid nucleation score is -0.866 ± 0.76.

Which amyloid nucleation score does the source give for PIMCKGNLTDFTFYCFCKFD here?
The amyloid nucleation score was 6.6 ± 0.067.

For GHSIVLCCRSESPLKKSRYM, which amyloid nucleation score is on record?
Its amyloid nucleation score is -0.432 ± 1.

With GIISRMGAVSLNLMLQKRAS as the substance, how does the amyloid nucleation score read?
The amyloid nucleation score was 0.8 ± 0.46.

For HVVTCMRILFPSDKGSCFVK, which amyloid nucleation score is on record?
Its amyloid nucleation score is -0.142 ± 0.37.

With LYSLWQKRGRRGSYVSPAGS as the substance, how does the amyloid nucleation score read?
Its amyloid nucleation score is 2.88 ± 0.13.

Which amyloid nucleation score does the source give for TIHRVVWCLL here?
The amyloid nucleation score was -0.645 ± 0.56.

For AYGKLSE, which amyloid nucleation score is on record?
The amyloid nucleation score was -0.68 ± 0.5.

With HCNLSWSCTSGIALSRT as the substance, how does the amyloid nucleation score read?
Its amyloid nucleation score is 4.54 ± 0.1.

Which amyloid nucleation score does the source give for RSLSNMCN here?
The amyloid nucleation score was -1.24 ± 1.

For HPSLVAGDWRFTGPLFCSLG, which amyloid nucleation score is on record?
The amyloid nucleation score was 4.02 ± 0.071.

For SSAYQMSEY, which amyloid nucleation score is on record?
Its amyloid nucleation score is 0.072 ± 1.1.

With YCMLCQGWDGICLPEVSAVW as the substance, how does the amyloid nucleation score read?
Its amyloid nucleation score is 0.146 ± 0.29.

Which amyloid nucleation score does the source give for FYFGYLTFISENHVGIQEQG here?
The amyloid nucleation score was “inactive”.

Which amyloid nucleation score does the source give for GSVREQNFISRASLYAHGLS here?
Its amyloid nucleation score is -0.095 ± 0.29.

Which amyloid nucleation score does the source give for EESFYTTPLSVFCVNLRYIV here?
The amyloid nucleation score was -0.383 ± 1.1.

Which amyloid nucleation score does the source give for FYFVSSRSIDGVFFRKILNS here?
Its amyloid nucleation score is “inactive”.

With MNYTT as the substance, how does the amyloid nucleation score read?
The amyloid nucleation score was -0.242 ± 0.54.

For SYGIAWTIMT, which amyloid nucleation score is on record?
The amyloid nucleation score was -0.701 ± 0.45.

With VFQIHYMVGNVVCTWSWPNV as the substance, how does the amyloid nucleation score read?
The amyloid nucleation score was 4.27 ± 0.056.

With IHASSVILITCFEFNFYYFA as the substance, how does the amyloid nucleation score read?
Its amyloid nucleation score is 4.64 ± 0.057.

Which amyloid nucleation score does the source give for VSFYDVH here?
The amyloid nucleation score was 0.011 ± 1.1.

For CSVVGWE, which amyloid nucleation score is on record?
Its amyloid nucleation score is 0.671 ± 0.66.

Which amyloid nucleation score does the source give for CSSTAVFTRLIKADIWVRSA here?
Its amyloid nucleation score is -1.35 ± 0.36.

For ACFSSSLCFVGMERSRSHNF, which amyloid nucleation score is on record?
Its amyloid nucleation score is 1.91 ± 0.13.

For AGSNDEKNRWVTSL, which amyloid nucleation score is on record?
The amyloid nucleation score was -0.22 ± 1.

For KFLHKQVFNFHVSGMNPMAS, which amyloid nucleation score is on record?
The amyloid nucleation score was 5.75 ± 0.069.

With LSFFMPDT as the substance, how does the amyloid nucleation score read?
The amyloid nucleation score was -1.53 ± 0.36.

Which amyloid nucleation score does the source give for EYVRFYLMGISWEAEKSHAL here?
Its amyloid nucleation score is 4.23 ± 0.11.

For SARFIIIWNWALSPRPRRCE, which amyloid nucleation score is on record?
Its amyloid nucleation score is 7.561 ± 0.041.
